No end group written: not given here.
Assays:
[1] = system: model tumor growth and angiogenesis; conditions: in vivo; cited from earlier work
[2] = biological target: T1, αVβ3 (Homo sapiens, UniProt P05106+P06756); assay: AP5 epitope expression on K562-αVβ3 cells preincubated with knottin-Fc; format: cell-based; conditions: Ca2+ and Mg2+ 1 mM each
T1 construct: expressed in transfected cells
Experimental: Cells were washed, resuspended, fixed in 4% paraformaldehyde, and analyzed using FACSCalibur or BD-LSRII flow cytometers (BD Biosciences). Binding of soluble knottin dimers to αVβ3-K562 cells was expressed as mean fluorescence intensity (MFI), as determined using FlowJo software. […] Alexa647-labeled mAb AP5 Fab (10 μg/ml) was added, and cells incubated for an additional 30 min before washing. APC-labeled goat anti-mouse Fc-specific antibody was added to anti-LIBS-1- or anti-LIBS-6-bound M21 cells for an additional 30 min at 4° C. Cells were then washed, resuspended, fixed in 4% paraformaldehyde and analyzed by flow cytometry. AP5 epitope expression was measured and expressed as MFI.
Cells were washed, resuspended, fixed in 4% paraformaldehyde, and analyzed using FACSCalibur or BD-LSRII flow cytometers (BD Biosciences). Binding of soluble knottin dimers to αVβ3-K562 cells was expressed as mean fluorescence intensity (MFI), as determined using FlowJo software. […] APC-labeled goat anti-mouse Fe-specific antibody was added to anti-LIBS-1- or anti-LIBS-6-bound M21 cells for an additional 30 min at 4° C. Cells were then washed, resuspended, fixed in 4% paraformaldehyde and analyzed by flow cytometry. AP5 epitope expression was measured and expressed as MFI.

[3] = biological target: T1, αVβ3; assay: Binding of knottin-Fc fusion proteins to K562-αVβ3 cells (FACS); conditions: Fc fusion in culture supernatant; Ca2+ and Mg2+ 1 mM each
Description: The wild type and modified versions were transiently expressed in HEK293 cells grown in 3% FBS. Culture supernatant contained equivalent amounts of the respective fusion proteins (verified by ELISA) and of the correct size (using western blotting with anti-his tag antibody). Binding of each to K562 cells expressing recombinant αVβ3 (K562-αVβ3) was examined using FACS as described in the methods section of the above-referenced paper, except that the unlabeled bound knottin was detected by adding fluorescienated anti-human Fc mAb.
Wild type and P/W substituted forms of knottin 2.5 F were expressed as Fc fusion proteins in mammalian cells and their abilities to bind cellular αVβ3 and to express the LIBS mAb AP5 were compared. αVβ3-K562 (1×10^6) cells were suspended in 100 μl of culture supernatant containing equivalent amounts (based on ELISA) of WT knottin 2.5 F-Fc fusion protein, knottin 2.5 F (P/W)-Fc, WT knottin 2.5 D-Fc, or knottin 2.5 F (A/W)-Fc or medium alone and incubated for 30 min; 25° C., washed in 400 μl buffer and fluoresceinated anti-FC-specific antibody added for an additional 30 min at 4° C. Cells were washed, resuspended, fixed in 4% paraformaldehyde, and analyzed using FACSCalibur or BD-LSRII flow cytometers (BD Biosciences). Binding of soluble knottin dimers to αVβ3-K562 cells was expressed as mean fluorescence intensity (MFI), as determined using FlowJo software. […]

[4] = system: K562-αVβ3 cells; assay: Mn2+-induced spreading of K562-αVβ3 cells on immobilized FN forms; format: cell-based, human; conditions: 1 mM Mn2+
Experimental: The various FN-coated surfaces were washed with PBS, and blocked with bovine serum albumin (5% w/v in PBS; lh; 25° C.). K562-αVβ3 cells (5×10^4) were added (in TBS; 1 mM Mn^2+), in the absence or presence of LM609 mAb (10 μg/ml, added 15 min prior to plating). Cells were incubated (2 h; 37° C.), washed three times in warm TBS and fixed with 4% formaldehyde (in PBS; 25° C.; 10 min). Images were captured using an inverted phase microscope (Zeiss Axiovert 40CFL) fitted with a powershot G12 Cannon Camera. ImageJ 1.48a software (National Institutes of Health, USA) was used to quantify cell spreading of 300-400 random selected cells. Spread cells were clearly distinguishable from round, refringent non-spread cells. Representative phase contrast images were collected using Zeiss Axiovert 35 inverted microscope using a CCD camera and Spot software (Diagnostics Instruments). Adhesion of transiently transfected HEK293 expressing equivalent amounts of αVβ3(N339/S) or αV(N266/Q)β3(N339/S) was done by adding cells (3×10^4) in TBS containing Ca^2+/Mg^2+ and 0.1% BSA (w/v) to FN-coated surfaces (45 min; 25° C.). Non-adherent cells were removed by washing and adherent cells fixed (2% paraformaldehyde; 30 min; 25° C.), stained (0.1% Crystal Violet; 30 min; 25° C.), washed with water, air dried and then solubilized (1% SDS). Relative cell attachment was estimated by absorbance of the lysates at 540 nm measured using a SpectraMax M2E microplate reader (Molecular Devices, Sunnyvale, Calif.).

[5] = biological target: T2, αVβ3(N339/S) (Homo sapiens, UniProt P05106+P06756, N365S); assay: Binding of fluoresceinated FN10 to WT αVβ3 or αVβ3(N339/S) expressed on HEK293T cells
T2 construct: pcDNA3 plasmids encoding full-length WT αVβ3, αVβ3(Y122/A), αVβ3(N339/S); expressed in transfected cells; host or cells: HEK293T (transient)
T2 sequence (P06756 31-889 limits assumed): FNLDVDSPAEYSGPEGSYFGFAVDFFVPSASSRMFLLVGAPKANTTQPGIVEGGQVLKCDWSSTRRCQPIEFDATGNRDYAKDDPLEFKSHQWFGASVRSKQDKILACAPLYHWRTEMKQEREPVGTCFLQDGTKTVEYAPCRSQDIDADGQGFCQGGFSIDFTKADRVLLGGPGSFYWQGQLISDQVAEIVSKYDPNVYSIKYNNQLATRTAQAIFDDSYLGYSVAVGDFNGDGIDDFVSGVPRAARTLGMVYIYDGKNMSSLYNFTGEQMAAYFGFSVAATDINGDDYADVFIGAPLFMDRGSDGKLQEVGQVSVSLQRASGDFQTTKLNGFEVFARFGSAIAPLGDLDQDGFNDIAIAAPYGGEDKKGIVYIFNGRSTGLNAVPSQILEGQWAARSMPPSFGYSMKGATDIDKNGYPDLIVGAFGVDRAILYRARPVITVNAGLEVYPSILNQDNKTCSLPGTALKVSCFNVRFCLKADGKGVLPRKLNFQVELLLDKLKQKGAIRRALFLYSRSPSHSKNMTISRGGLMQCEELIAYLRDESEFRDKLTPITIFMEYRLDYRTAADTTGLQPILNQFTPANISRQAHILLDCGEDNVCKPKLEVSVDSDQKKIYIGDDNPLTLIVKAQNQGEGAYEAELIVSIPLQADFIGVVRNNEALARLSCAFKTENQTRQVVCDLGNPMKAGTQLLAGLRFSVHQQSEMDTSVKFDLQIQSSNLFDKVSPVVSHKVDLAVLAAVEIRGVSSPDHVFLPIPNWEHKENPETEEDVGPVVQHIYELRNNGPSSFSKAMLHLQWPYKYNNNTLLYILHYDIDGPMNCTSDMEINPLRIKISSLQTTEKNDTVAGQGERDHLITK
T2 sequence (P06756 891-1048 partner limits assumed): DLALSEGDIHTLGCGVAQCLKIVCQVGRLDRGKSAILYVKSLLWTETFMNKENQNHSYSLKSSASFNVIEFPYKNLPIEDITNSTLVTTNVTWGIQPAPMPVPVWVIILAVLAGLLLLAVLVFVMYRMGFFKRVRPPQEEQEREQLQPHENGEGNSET
T2 sequence (P05106 27-788 N365S): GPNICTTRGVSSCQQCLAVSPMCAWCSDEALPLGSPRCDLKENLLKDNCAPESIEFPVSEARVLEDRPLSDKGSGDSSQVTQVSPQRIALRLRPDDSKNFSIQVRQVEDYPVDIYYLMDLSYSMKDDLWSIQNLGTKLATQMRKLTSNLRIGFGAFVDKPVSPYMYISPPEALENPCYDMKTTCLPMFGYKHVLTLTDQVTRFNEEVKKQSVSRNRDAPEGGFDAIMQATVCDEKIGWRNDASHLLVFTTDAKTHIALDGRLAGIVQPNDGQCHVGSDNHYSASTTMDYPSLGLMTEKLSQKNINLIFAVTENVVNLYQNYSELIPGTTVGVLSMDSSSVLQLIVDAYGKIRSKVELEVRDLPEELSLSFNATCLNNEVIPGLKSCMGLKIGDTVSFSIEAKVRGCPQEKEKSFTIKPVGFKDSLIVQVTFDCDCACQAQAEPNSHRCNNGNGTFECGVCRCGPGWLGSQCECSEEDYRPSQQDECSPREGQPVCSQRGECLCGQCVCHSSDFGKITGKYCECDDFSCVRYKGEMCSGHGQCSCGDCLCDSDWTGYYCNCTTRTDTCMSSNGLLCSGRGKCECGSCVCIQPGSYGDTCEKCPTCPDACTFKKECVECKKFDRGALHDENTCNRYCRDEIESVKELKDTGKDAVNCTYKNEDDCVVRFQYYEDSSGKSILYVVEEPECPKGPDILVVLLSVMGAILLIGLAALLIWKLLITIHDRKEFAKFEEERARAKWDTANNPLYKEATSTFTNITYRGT
Experimental: The human erythroleukemia cell line K562 stably expressing recombinant αVβ3 (K562-αVβ3) and the human melanoma cell line M21, which constitutively expresses αVβ3, have been previously described (Xiong, J. P. et al. The Journal of Cell Biology 186, 589-600 (2009); and Mitjans, F. et al. J Cell Sci 108 (Pt 8), 2825-2838 (1995)). Cells were maintained in Iscove's modified Dulbecco's medium (K562-αVβ3) or RPMI1640 (M21), supplemented with 10% fetal calf serum, 2 mM L-glutamine, penicillin and streptomycin, plus G418 (0.5-1.0 mg/ml) in cultured K562-αVβ3. HEK293T (ATCC) were transiently co-transfected with pcDNA3 plasmids encoding full-length WT αVβ3, αVβ3(Y122/A), αVβ3(N339/S), or αV(N266/Q)β3(N339/S) using Lipofectamine 2000 reagent (Invitrogen) according to the manufacturer's protocol.
In cellular and biochemical assays where calcium, magnesium or manganese ions were used, they were each at final concentrations of 1 mM. […] Binding of soluble FN10 to αVβ3^+ cells was expressed as mean fluorescence intensity (MR), as determined using the CellQuest software (BD). […] Mean and SD from independent experiments were calculated, and compared using Student's t test.

[6] = biological target: T3, αVβ3 ectodomain (Homo sapiens, UniProt P05106+P06756); assay: Hydrodynamic shift assay (molecular sieve chromatography, Stokes radius); conditions: in Mn2+ (6.3 nm without ligand)
T3 construct: αVβ3 ectodomain was incubated alone or with FN10; made in house; host or cells: insect cells
T3 sequence (P06756 31-987): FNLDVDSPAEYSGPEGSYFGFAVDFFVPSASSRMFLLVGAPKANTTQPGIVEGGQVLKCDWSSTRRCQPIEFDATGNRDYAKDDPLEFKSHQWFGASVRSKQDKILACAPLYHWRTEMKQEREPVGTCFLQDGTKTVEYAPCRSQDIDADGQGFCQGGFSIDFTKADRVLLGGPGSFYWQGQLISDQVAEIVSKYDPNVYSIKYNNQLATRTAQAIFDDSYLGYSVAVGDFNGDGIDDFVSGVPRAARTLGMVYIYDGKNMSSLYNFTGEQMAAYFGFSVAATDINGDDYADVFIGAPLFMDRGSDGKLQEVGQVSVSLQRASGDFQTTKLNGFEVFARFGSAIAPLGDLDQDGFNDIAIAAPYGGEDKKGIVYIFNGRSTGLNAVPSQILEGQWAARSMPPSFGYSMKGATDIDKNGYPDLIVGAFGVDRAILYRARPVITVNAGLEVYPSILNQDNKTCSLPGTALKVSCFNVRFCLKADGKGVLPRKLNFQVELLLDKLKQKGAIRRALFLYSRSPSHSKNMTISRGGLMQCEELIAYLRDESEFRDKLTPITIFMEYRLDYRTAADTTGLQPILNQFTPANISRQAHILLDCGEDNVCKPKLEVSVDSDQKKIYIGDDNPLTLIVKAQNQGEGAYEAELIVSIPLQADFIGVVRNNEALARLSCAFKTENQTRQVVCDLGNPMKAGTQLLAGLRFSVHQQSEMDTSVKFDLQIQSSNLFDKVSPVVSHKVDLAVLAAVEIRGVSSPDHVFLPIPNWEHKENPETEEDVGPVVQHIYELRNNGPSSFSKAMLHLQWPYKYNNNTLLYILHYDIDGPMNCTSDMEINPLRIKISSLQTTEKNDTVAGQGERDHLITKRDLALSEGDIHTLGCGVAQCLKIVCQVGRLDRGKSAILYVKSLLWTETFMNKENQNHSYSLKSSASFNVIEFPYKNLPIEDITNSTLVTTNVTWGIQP
T3 sequence (P05106 27-718): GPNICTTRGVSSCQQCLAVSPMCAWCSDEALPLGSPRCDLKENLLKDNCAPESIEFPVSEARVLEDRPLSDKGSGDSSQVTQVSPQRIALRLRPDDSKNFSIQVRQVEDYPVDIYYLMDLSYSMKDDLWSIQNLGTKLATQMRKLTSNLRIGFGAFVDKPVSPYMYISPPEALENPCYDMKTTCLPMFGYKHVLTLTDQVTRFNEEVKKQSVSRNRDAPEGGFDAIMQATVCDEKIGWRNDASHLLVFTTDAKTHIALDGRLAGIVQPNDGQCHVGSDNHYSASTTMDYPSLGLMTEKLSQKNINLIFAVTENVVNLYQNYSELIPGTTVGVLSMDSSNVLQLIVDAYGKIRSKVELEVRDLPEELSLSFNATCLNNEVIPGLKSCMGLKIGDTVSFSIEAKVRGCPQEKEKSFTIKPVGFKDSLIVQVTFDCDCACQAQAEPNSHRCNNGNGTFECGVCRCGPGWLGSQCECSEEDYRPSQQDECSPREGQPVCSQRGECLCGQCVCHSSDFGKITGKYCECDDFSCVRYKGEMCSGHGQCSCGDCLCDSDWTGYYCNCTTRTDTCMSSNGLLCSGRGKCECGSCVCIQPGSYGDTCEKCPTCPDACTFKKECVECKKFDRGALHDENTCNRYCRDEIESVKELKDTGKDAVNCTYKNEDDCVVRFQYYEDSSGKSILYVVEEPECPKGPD
Experimental: αVβ3 ectodomain was incubated alone or with FN10 (at 2:1 FN10/integrin molar ratio) in 145 mM NaCl and 25 mM Tris-HCl, pH 7.4 (TBS) containing Ca^2+, Ca^2+/Mg^2+ or Mn^2+ (20° C.; 1.5 h). Aliquots were taken and chromatographed at room temperature at this time point on a precalibrated Superdex S-200 GL column equilibrated buffer with the same metal ion composition used during the incubation, and Stokes radii were derived as described previously (Xiong, J. P. et al. The Journal of Cell Biology 186, 589-600 (2009)). The elution profiles resolved by molecular sieve chromatography were monitored in-line by UV adsorption at 280 nm. Unliganded ±FN10-treated αVβ3 species were resolved as single discrete symmetrical peaks. Excess FN10 served as an internal standard. Identity of resolved peaks was formally confirmed by SDS-PAGE.

[7] = biological target: αVβ5 (Homo sapiens, UniProt P06756+P18084); conditions: Moore et al, 2013; cited from earlier work
αVβ5, sequence (P06756 31-889 limits assumed): as the sequence (P06756 31-889 limits assumed) above
αVβ5, sequence (P06756 891-1048 partner limits assumed): as the sequence (P06756 891-1048 partner limits assumed) above
αVβ5, sequence (P18084 24-799): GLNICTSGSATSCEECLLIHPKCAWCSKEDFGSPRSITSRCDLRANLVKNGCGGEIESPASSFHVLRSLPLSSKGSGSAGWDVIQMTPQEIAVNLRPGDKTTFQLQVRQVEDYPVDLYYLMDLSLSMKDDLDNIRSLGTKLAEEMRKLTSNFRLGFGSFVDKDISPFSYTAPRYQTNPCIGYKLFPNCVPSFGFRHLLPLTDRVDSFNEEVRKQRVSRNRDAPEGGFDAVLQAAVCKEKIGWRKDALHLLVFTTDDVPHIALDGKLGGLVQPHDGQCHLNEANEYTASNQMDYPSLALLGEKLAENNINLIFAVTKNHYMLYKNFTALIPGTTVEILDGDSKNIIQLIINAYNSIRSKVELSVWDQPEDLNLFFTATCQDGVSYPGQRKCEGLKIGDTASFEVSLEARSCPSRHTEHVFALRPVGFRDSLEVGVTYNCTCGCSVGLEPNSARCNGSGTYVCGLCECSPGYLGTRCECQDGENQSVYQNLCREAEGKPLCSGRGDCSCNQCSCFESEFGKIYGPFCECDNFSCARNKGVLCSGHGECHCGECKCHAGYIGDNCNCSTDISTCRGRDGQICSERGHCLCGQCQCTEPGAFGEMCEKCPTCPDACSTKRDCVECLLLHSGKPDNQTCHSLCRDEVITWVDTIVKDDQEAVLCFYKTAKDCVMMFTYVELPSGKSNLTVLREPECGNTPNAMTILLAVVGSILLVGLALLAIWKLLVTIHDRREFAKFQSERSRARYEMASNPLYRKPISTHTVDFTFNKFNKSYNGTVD

[8] = biological target: α5β1 (Homo sapiens, UniProt P05556+P08648); conditions: Moore et al, 2013; cited from earlier work
[9] = biological target: T1, αVβ3; assay: Binding of fluoresceinated fluid-phase FN10 to K562-αVβ3 cells (flow cytometry); conditions: 1 mM Ca2+/Mg2+; fold over background
Experimental: In cellular and biochemical assays where calcium, magnesium or manganese ions were used, they were each at final concentrations of 1 mM. Cells stably (K562) or transiently (I-fEK293T) expressing WT or mutant forms of αVβ3 were preincubated (30 min; 0° C.) in the dark with Alexa647-conjugated AP3 (10 μg/ml), washed in Hepes-buffered saline (20 mM Hepes, 150 mM NaCl, pH 7.4) containing BSA (0.1% w/v; washing buffer, WB), incubated in 10 mM EDTA in WB (5 min; 25° C.), then washed three times in WB. […] Binding of soluble FN10 to αVβ3^+ cells was expressed as mean fluorescence intensity (MR), as determined using the CellQuest software (BD). Binding of soluble FN10 to HEK293T was normalized by dividing its MFI by the MFI of Alexa647-conjugated AP3 to the same cells and multiplying by 100. Mean and SD from independent experiments were calculated, and compared using Student's t test.

[10] = biological target: T4, αIIbβ3^N/S (Homo sapiens, UniProt P05106+P08514, N365S); assay: Binding of fluorescein-tagged hFN10-G to preactivated cellular αIIbβ3(N/S); conditions: N339 to S activation
T4 construct: expressed in transfected cells
Description: (§1) FIG. 9. […] (A) Superposed RGD-containing loops of hFN10 (gray in original), hFN10-G (pink in original) onto the RGD loop of frog γC (green in original). Sphere represents the metal ion at MIDAS.

[11] = biological target: αVβ3^N/S (Homo sapiens, UniProt P05106+P06756, N365S); assay: Binding of fluorescein-tagged hFN10-G to preactivated cellular αVβ3(N/S); parameters: pcDNA3 plasmids encoding full-length WT αVβ3, αVβ3(Y122/A), αVβ3(N339/S); expressed in transfected cells; host or cells: HEK293T (transient); conditions: N339 to S activation
αVβ3^N/S, sequence (P06756 31-889 limits assumed): as the sequence (P06756 31-889 limits assumed) above
αVβ3^N/S, sequence (P06756 891-1048 partner limits assumed): as the sequence (P06756 891-1048 partner limits assumed) above
αVβ3^N/S, sequence (P05106 27-788 N365S): as the sequence (P05106 27-788 N365S) above
Description: as §1

T1 sequence (P06756 31-889 limits assumed): as the sequence (P06756 31-889 limits assumed) above
T1 sequence (P06756 891-1048 partner limits assumed): as the sequence (P06756 891-1048 partner limits assumed) above
T1 sequence (P05106 27-788): as the sequence (P05106 27-788 N365S) above, with S339N counted along it

In the case of `CC(C)[C@H]1C(=O)N[C@@H](CCCN=C(N)N)C(=O)NCC(=O)N[C@@H](CC(=O)O)C(=O)N[C@H](Cc2ccccc2)C(=O)N1C` [cilengitide], the “Effect on model tumor growth and angiogenesis” value [1] is given as “paradoxically stimulated model tumor growth and angiogenesis”.

For “P/W knottin 2.5 F: knottin 2.5 F with Proline 10 replaced by Trp, expressed as Fc fusion protein (GCPRPRGDNWPLTCSQDSDCLAGCVCGPNGFCG; disulfide (positions not given here); also: cystine-knot disulfide bonds, pairing not given here, Fc fusion protein)”, the “AP5 expression / integrin activation on K562-αVβ3” value [2] was “suppressed AP5 expression” and the “Binding to cellular αVβ3 (K562-αVβ3)” value [3] was “equivalent”.

With “full-length FN: full-length human plasma fibronectin from Sigma-Aldrich” the “Spreading of K562-αVβ3 cells on immobilized ligand” value (“Spreading of K562-αVβ3 cells” below) [4] was “extensive spreading”.

In the case of “hFN10: mutant high affinity form of the 10th type-III domain of fibronectin, loop PRGDWNEG, SEQ ID NO: 9”, the “Binding to WT αVβ3 versus active αVβ3(N339/S)” value [5] is reported as “similar”, the “Spreading of K562-αVβ3 cells” value [4] is reported as “little spreading” and the “Stokes' radius (Rs) of αVβ3 complex” value [6] is reported as 6.3 nm.

In the case of “knottin 2.5 F: cysteine-knot peptide, chemically synthesized, published sequence (Kimura et al 2009) (GCPRPRGDNPPLTCSQDSDCLAGCVCGPNGFCG)”, the “Binding to integrin αVβ5” value [7] is given as “binds” and the “Binding to integrin α5β1” value [8] is given as “binds”.

With “wtFN10: 10th type-III RGD-domain of wild-type human fibronectin, loop GRGDSPAS, SEQ ID NO: 20 [reference compound]” the “Binding of fluoresceinated FN10 to K562-αVβ3” value [9] was “low background”, the “Spreading of K562-αVβ3 cells” value [4] was “extensive spreading” and the “Stokes' radius (Rs) of αVβ3 complex” value [6] was 6.6 nm.

B1: hFN10-G: hFN10 with a glycine inserted after proline 1492, SEQ ID NO: 29 (protein)
chain: SDVPRDLEVVAATPTSLLISWDAPAVTVRYYRITYGETGGNSPVQEFTVPGSKSTATISGLKPGVDYTITVYAVTPGRGDWNEGSKPISINY
For B1, the “Binding to preactivated cellular αIIbβ3^N/S” value [10] was “some binding” and the “Binding to preactivated cellular αVβ3^N/S” value [11] was “did not bind”.
